The values below are quoted from earlier work in article PMC11105488.

Some targets named below: FGFR2c (Homo sapiens) (UniProt P21802); FGFR1c (Homo sapiens) (UniProt P11362); FGFR4 (Homo sapiens) (UniProt P22455).
Sequence of UniProt P21802 (P21802 22-377): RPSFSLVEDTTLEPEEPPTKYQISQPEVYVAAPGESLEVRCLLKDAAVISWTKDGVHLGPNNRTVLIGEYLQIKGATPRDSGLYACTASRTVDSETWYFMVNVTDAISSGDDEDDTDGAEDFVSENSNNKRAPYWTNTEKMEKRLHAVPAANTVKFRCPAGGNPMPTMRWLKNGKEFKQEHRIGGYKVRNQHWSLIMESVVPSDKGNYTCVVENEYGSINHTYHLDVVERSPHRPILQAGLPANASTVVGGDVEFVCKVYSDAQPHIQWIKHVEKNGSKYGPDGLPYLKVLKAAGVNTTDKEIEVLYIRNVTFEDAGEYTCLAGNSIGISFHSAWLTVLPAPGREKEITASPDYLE
Sequence of UniProt P22455 (P22455 22-369): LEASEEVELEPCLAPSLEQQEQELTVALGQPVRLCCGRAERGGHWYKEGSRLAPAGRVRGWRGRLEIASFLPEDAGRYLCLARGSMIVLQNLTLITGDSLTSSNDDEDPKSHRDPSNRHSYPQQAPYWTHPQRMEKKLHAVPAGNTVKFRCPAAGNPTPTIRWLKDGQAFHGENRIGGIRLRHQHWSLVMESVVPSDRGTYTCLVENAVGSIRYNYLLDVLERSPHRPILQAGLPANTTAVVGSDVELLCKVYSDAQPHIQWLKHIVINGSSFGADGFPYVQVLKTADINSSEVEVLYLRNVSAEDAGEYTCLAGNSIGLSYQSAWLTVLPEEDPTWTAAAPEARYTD
Sequence of UniProt P11362 (P11362 22-376): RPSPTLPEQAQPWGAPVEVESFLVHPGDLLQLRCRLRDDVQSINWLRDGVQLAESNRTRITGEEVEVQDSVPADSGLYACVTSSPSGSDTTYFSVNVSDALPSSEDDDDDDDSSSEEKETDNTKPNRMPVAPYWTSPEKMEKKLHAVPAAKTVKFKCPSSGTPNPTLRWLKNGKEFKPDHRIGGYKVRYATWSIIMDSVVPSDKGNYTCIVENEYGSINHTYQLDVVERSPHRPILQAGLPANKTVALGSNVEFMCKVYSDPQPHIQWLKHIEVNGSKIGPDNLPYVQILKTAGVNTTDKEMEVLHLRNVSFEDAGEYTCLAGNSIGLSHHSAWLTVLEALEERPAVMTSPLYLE

Regarding FGF23 (from UniProt Q9GZV9), the Kd (usually the free concentration of one partner at which half of the binding sites on the other are occupied at equilibrium, for simple one-to-one binding) with FGFR2c (Homo sapiens) was 200 nM; with FGFR1c (Homo sapiens), 700 nM; in the data set with FGFR4 (Homo sapiens), 200 nM.
